Experimental data as given in the supplement of paper PMC12764529.
± gives the half width of the 95% confidence interval.

Tests used:
[1] = folding stability dG unfold from trypsin proteolysis; higher = more stable
Outline: (§1)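 Sequencing followed digestion of designed mini-proteins with trypsin and chymotrypsin, each at 11 concentrations in threefold dilutions together with a no-protease condition. The mini-proteins were under 80 residues, had no cysteine, sat in a PA-tagged cDNA display construct, and were kept only if AlphaFold2 dimer inter-PAE was above 15. From the counts, Bayesian fitting gave K50, and unfolding free energy was derived against a sequence-predicted unfolded-state K50 and a shared folded-state K50, per protease or combined.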

[2] = folding stability dG unfold from chymotrypsin proteolysis; higher = more stable
Outline: as §1

[3] = folding stability dG unfold (combined trypsin and chymotrypsin); higher = more stable
Outline: as §1

Sequence	folding stability dG unfold [1]	folding stability dG unfold [2]	folding stability dG unfold [3]
SAGGSAGGSAGGGNMTITVMIPIEIPVFKYDGGKPEFEPFPIYIMVEVTVPEGAPLEEFSAGGSAGGSAGGS [r10_633_TrROS]	2.1 ± 0.076 kcal/mol	1.49 ± 0.027 kcal/mol	1.79 ± 0.068 kcal/mol
SAGGSAMAIVEYDPDNRVRAIVYFPGEKRVALVEVDDDTATVTAVYDLSDDGVATYLDEATFEIGGSAGGSA [r2_60_TrMRF]	0.896 ± 0.048 kcal/mol	0.87 ± 0.043 kcal/mol	0.922 ± 0.046 kcal/mol
SAPPIEELSEEEIKKLVEEELKKKGISPENVKIEITIEKPPGPEYRVKVKVTYKKNKNYLEFEFEFELPSAG [r14_703_JUSTAS]	2.34 ± 0.2 kcal/mol	4.23 ± 0.17 kcal/mol	3.96 ± 0.33 kcal/mol
SAGGSAGGSTPTEFAKNLNVTEVKYDPVKKTVRVIHEFEDYLVLVEYDPSTGEVRVEVFSKDESAGGSAGGS [r12_214_TrMRF]	1.4 ± 0.12 kcal/mol	2.05 ± 0.12 kcal/mol	1.84 ± 0.24 kcal/mol
SAGKPKELAKKIAEKLAKEFEKKHPDVKIEKVEVKKIEVNPIEGYVKIDIVMYGKNGKLIYKPKITIKSAGG [r19_53_TrMRF]	3.22 ± 0.27 kcal/mol	3.96 ± 0.083 kcal/mol	3.63 ± 0.14 kcal/mol
SAGGSALPIETPSDGVVPYTDPVTGKTYTVTFRRDEGKTSFRVEEPESSATREVTEPVSVTEAVLTSAGGSA [r15_234_JUSTAS]	-0.219 ± 0.12 kcal/mol	0.069 ± 0.13 kcal/mol	0.000309 ± 0.084 kcal/mol
SAGGSAGGSAEITFNFPNPNGRPYPISIEIEKPKRNPDGKYRYDYKIKVSPGMPKEAAKDLFSAGGSAGGSA [r18_272_TrROS]	-0.849 ± 0.39 kcal/mol	-0.314 ± 0.33 kcal/mol	-0.351 ± 0.2 kcal/mol
SAGGSAGGSAGGSGMSVKREVLEVEEFPGPGRVVRVLERVTLPDGTELLREIEEVIDLLSAGGSAGGSAGGS [r4_50_JUSTAS]	0.219 ± 0.068 kcal/mol	1.12 ± 0.049 kcal/mol	0.871 ± 0.058 kcal/mol
SKMKIKIEVEKVEDGYLKITITAESKEEAEKAIKELAKKLFGIEEVKVEYDKETKKITVEIIIRPPGEKVSA [r9_1120_TrROS_Hall]	2 ± 0.17 kcal/mol	3.61 ± 0.18 kcal/mol	2.95 ± 0.35 kcal/mol
PWVMIPIRVDDPNMTIREIANEVRKALPPGNKNLKISIMWGDGRRYEIDPGETLKDHFPPGDEFHIMVRLPS [r1_56_TrROS]	1.65 ± 0.02 kcal/mol	1.3 ± 0.086 kcal/mol	1.55 ± 0.048 kcal/mol
SAGGKKEKKLTLLFSDPNGKLSLVIEVYKKKDGSYWAVFYNPETGKKEEYKFKSLEELEEAVKELLKKSAGG [r13_857_TrMRF]	2.8 ± 0.048 kcal/mol	4.579 ± 0.045 kcal/mol	4.27 ± 0.077 kcal/mol
SAGKKKKKPKVKEVIIVVKVENMTAEEIAKKLAEELNVEVTKVEVKDGYVTITLKDGSKIKIEVIPEEKSAG [r5_350_TrROS_Hall]	1.35 ± 0.11 kcal/mol	1.76 ± 0.069 kcal/mol	1.58 ± 0.15 kcal/mol
SAGGPITITIKTKNGKELELKLPGIRSVQFNPDSVWIAFKFPDQYIMIQINPPNGKIMIQIMPPGQPISAGG [r13_392_TrROS]	2.47 ± 0.097 kcal/mol	3.66 ± 0.053 kcal/mol	3.18 ± 0.14 kcal/mol
SAGGSAGGSAGKTYEIVEYNPETKKFLIRFEDGSTKEVEVKPGDKIEVPPGAKVEIVPLDSAGGSAGGSAGG [r17_295_TrROS_Hall]	1.94 ± 0.069 kcal/mol	1.76 ± 0.1 kcal/mol	1.88 ± 0.14 kcal/mol
SAMDFKAEKVEILKVEKLKDGTVKITVKVEVGKYVLNAEIPYGKDGKIEKIEAEIDLENNFMTYKVTVGSAG [r14_189_TrMRF]	1.58 ± 0.19 kcal/mol	2.24 ± 0.13 kcal/mol	1.97 ± 0.33 kcal/mol
SAEVRARLEYDPVSGDLVLEVERPLPNGDVIRARVDLVNPVLRVEHLPVRDGVPLPRETELDLPADALVSAG [r14_64_TrMRF]	0.394 ± 0.084 kcal/mol	0.855 ± 0.039 kcal/mol	0.766 ± 0.067 kcal/mol

Sequence	folding stability dG unfold [1]	folding stability dG unfold [2]	folding stability dG unfold [3]
SAGGNWRIRVKIEGPDGKTVNHWFWIPNLEDLLSFIQSQPGPKIKDVEIEPPPKDKQYYIPFTMTIPPSAGG [r13_796_TrROS]	1.72 ± 0.031 kcal/mol	1.87 ± 0.11 kcal/mol	1.8 ± 0.11 kcal/mol
SAGDWVPIEFTIFFPDPNMTIEEIADSALMNLGLPPEDVTVKIKNIHEQPDPDGRPYYHIEVKIYIPDNSAG [r5_528_TrROS]	1.7 ± 0.13 kcal/mol	3.17 ± 0.13 kcal/mol	2.75 ± 0.23 kcal/mol
SAGGEEKEKLREAIRAALDEAIKEGKKIKKIVIVASPEKKEEIAKLLEEEGLLENLEIEVVSPEELKSAGGS [r16_164_TrROS_Hall]	1.74 ± 0.072 kcal/mol	0.665 ± 0.14 kcal/mol	1.27 ± 0.25 kcal/mol
SALLENGGIFISINLEWDPEYNWIRIKRFTIYWNGKVIATQPQWIPVPPPPPPPPPEREYNPNDPDNNKSAG [r14_571_TrROS]	3.19 ± 0.19 kcal/mol	5.06 ± 0.085 kcal/mol	4.56 ± 0.16 kcal/mol
SAGGSAMTVTTTTSVDPKTGIITTTVSVNGTPVFTGTSIVAPGGEVAETFGTYTYDPETGTVTVTGSAGGSA [r15_770_JUSTAS]	1.7 ± 0.067 kcal/mol	1.17 ± 0.049 kcal/mol	1.43 ± 0.086 kcal/mol
SAGGMPVVIEIHVPKDKEEELARLIRRLLSELGAEVRVERFEDGIKVTAVLPDGTVIELHIVDDEKASAGGS [r16_406_TrMRF]	4.29 ± 0.21 kcal/mol	4.03 ± 0.17 kcal/mol	4.24 ± 0.19 kcal/mol
SAGLGIWRDPDMWKLEFNLLLPNGYVYKVEVTVTPDGIDVSIEPVPIPPVPTADSPEDAKEYQKQNENQSAG [r5_272_TrROS]	1.06 ± 0.13 kcal/mol	2.61 ± 0.18 kcal/mol	2.06 ± 0.35 kcal/mol
SAGGSAMTPEEVREKAEEIAETLAAEAREAGYEVEVKAKVEGLPEKYARVTVELNGARVEVLIPLDSAGGSA [r15_432_TrMRF]	0.453 ± 0.059 kcal/mol	-0.311 ± 0.18 kcal/mol	0.125 ± 0.09 kcal/mol
SSASAMAPLPVEVYTLTVTVVKPGGEEVGTYTFTFNSPEEAKAFLEAFAKEKGLTIKKATLTRTPDTSLSSA [r9_1226_JUSTAS]	2.7 ± 0.12 kcal/mol	4.59 ± 0.054 kcal/mol	4.16 ± 0.1 kcal/mol
SVSSKISKVVSETVEDDKRTVTIEVNVPSPVVEIYDSSGKVIKTVPLGKKTTITVTTDPKGTSVSVKVLNSA [r9_917_JUSTAS]	0.46 ± 0.12 kcal/mol	0.967 ± 0.044 kcal/mol	0.697 ± 0.11 kcal/mol
SAGGSEVTLKVKVRRKVFKDGKLVAEEEVEKEVRVKLPPPPKIELSPELRKALEENDLEKIKKALESAGGSA [r2_196_TrROS_Hall]	1.43 ± 0.066 kcal/mol	1.74 ± 0.053 kcal/mol	1.62 ± 0.11 kcal/mol
SAGGSAGGSMEENKPVVTLTTVEIYIESEVDPSLGKPLNPKKITVTLTTTVPPDGSTSTSTLFSAGGSAGGS [r12_438_JUSTAS]	1.11 ± 0.17 kcal/mol	1.67 ± 0.17 kcal/mol	1.45 ± 0.19 kcal/mol
SAGGMTRKLTFLGDIDKPVGLDGDIEIRPNPETGGFTIRVPPGVRIEAEVERLTDPPLALVTVTFLESAGGS [r16_122_TrMRF]	-0.118 ± 0.082 kcal/mol	1.03 ± 0.074 kcal/mol	0.715 ± 0.054 kcal/mol
SAGGSELTLTVKVTVTVEVNGKTFTVEATLTLRFRPAPPPPKVRLERDADGNLRVTDANGKTRELRFSAGGS [r16_136_TrROS_Hall]	2.42 ± 0.17 kcal/mol	2.8 ± 0.1 kcal/mol	2.61 ± 0.23 kcal/mol
WMWVIKVRNPKNGKKRTIMIPDDPERAKNQIKNLKKQDPNMTVEIIGIKEPEVRKAAKEAGLDDIEVEPMPS [r1_114_TrROS]	0.758 ± 0.091 kcal/mol	0.666 ± 0.34 kcal/mol	0.726 ± 0.31 kcal/mol
